Laboratory results reported in paper doi:10.1101/2021.03.25.436948.

Target: Drosophila melanogaster GNPTAB homolog, luminal portion (residues 50-630) (Drosophila melanogaster)
Test: cryo-EM structure

stoichiometry N: 2
Substance: Drosophila melanogaster GNPTAB homolog, luminal portion (residues 50-630) (domain or fragment)
